Square brackets hold non-standard residues; d marks the D form. Ends that are not written are not given here.
How the values were obtained:
Type in all cases: physicochemical
[1] = High-throughput centrifuge analysis of mechanical properties of the hydrogels (surface deformation, metal bead penetration); settings: for Deformation speed: 50 μl 1×PBS, 45° centrifuge; for Penetration speed: 275 μm metal beads
Protocol: (§1) ATIII is a heparin-binding peptide known from the literature. All peptides are connected to a four-armed, maleimide functionalized 10-kDa-polyethylene glycol (starPEG). The hydrogel formation was tested in a 50 μI mixture, which contains 5 mM 14-kDa-heparin and 5 mM (2.5 mM) peptide-starPEG conjugate in phosphate buffer solution (1×PBS, pH 7.4). The deformation and penetration speed was analyzed through centrifuging the hydrogel in a 45° table centrifuge with 275 μm metal beads added to the surface. The deformation of the surface and the penetration of the metal beads were monitored in dependence on the applied force.
A comparative high-throughput analysis was performed regarding the mechanical properties of the hydrogels. In order to provide a fast high-throughput method for comparing small amounts of hydrogel, a tabletop centrifuge (5424R, Eppendorf, Hamburg, Germany) was used. For this purpose, 50 μl of the hydrogel were formed by mixing the peptide-starPEG-conjugates and 14-kDa-heparin in phosphate buffer (1×PBS, pH 7.4) to a final concentration of 5 mM (once 2.5 mM for KA7-starPEG). The mixture was incubated in 0.2 ml reaction vessels overnight. The deformation of the hydrogel surface was determined in reference to the 45° centrifuge rotor and the penetration of 275 μm metal beads in dependence on the force that has to be produced by the centrifuge. All experiments were repeated three times.
Hereby FIGS. 5A and B show a deformation of the surface of the 50 μl hydrogel in a 0.2 ml reaction tube, more specifically FIG. 5A below the speed required for deforming the surface, and FIG. 5B at the speed required for deforming the surface. FIG. 5C is a schematic representation of the penetration of a small spheres through 50 μl hydrogel in a 0.2 ml reaction tube depending on the force exerted by the 45° centrifuge.
The hydrogels were formed by mixing peptide-starPEG-conjugate and 14-kDa-heparin at 5 mM final concentration in 50 μl phosphate buffer (1×PBS). The analysis was performed by centrifuging the hydrogels in a 45° tabletop centrifuge with 275 μm metal beads on the gel surface. The deformation of the surface and the penetration of the spheres were recorded in dependence on the exerted force.

[2] = Stability of formed hydrogels against different solvents; settings: 24° C., at least three days
Protocol: In order to test the strength of the interaction between the peptide motif and the 14-kDa-heparin the formed hydrogels were tested with regard to different solvents. […] For this the peptide-starPEG-conjugates were mixed with 14 kDa-heparin in 50 μl in physiological phosphate buffer solution (1×PBS) to a final concentration of respectively 5 mM. Each solvent, i.e., physiological phosphate buffer solution (1×PBS), Milli-0-water, 1 M hydrochloric acid (HCl) 1 M sodium hydroxide solution (NaOH), saturated sodium chloride solution (NaCl), dimethyl sulfoxide (DMSO), ethanol and cell culture medium with 2% fetal bovine serum (FBS) were respectively added as 200 μl supernatant to the hydrogel. The hydrogel was incubated at a room temperature of 24° C. and the supernatants where exchanged every day for at least three days. All experiments were performed three times. Under none of the tested conditions the KA7-hydrogel could be destroyed. […] 2,2,2-trifuourethanlol (TFE) is known to destroy any type of secondary structures.

[3] = Hydrogel formation in different solvents; settings: 5 mM conjugate + 5 mM 14-kDa-heparin
Protocol: Three respective different cases were tested in the hydrogel-formation stability test. […] The hydrogels were formed by mixing the final concentrations of respectively 5 mM peptide-starPEG-conjugate and 5 mM 14-kDa-heparin in 50 μl physiological phosphate buffer solution (1×PBS), Milli-Q-water or cell culture medium with 2% fetal bovine serum (FBS). The stability of the hydrogels was tested with the same solvent in which it was formed in 200 μl supernatant. The hydrogels were incubated at room temperature (24° C.), the supernatants were changed every day for at least three days in a row and the result after at least 3 days analyzed.

[4] = Hydrogel formation of peptide-starPEG conjugates with 14-kDa-heparin; settings: peptide coupled to 10-kDa starPEG; 5 mM 14-kDa-heparin + 5 mM (2.5 mM) conjugate, 50 μl 1×PBS pH 7.4
Protocol: Following is the description of the production of the hydrogel networks. Hereby 14-kDa-heparin (25 mM, 2.5 mM) and peptide-starPEG conjugates (6.25 mM, 3.125 mM) were dissolved in physiologic phosphate buffer solution (1×PBS) water or cell culture medium with 2% fetal bovine serum (FBS). These solutions were dissolved in a ratio of 1:4 heparin:peptide-starPEG-conjugate by obtaining […] or 5 mM 14-kDa-heparin and 2.5 mM or 5 mM peptide-starPEG. The ligand/mol ratio was 2:1, 1:1 and 1:5 relative to the mol ratio of 14-kDa-heparin and the peptide-starPEG-conjugate. The mixtures were incubated within a time frame of one hour to overnight at […]. The gelation time spanned from present up to several hours depending on the applied peptide motif.
as §1
In addition to the peptide motif, a tryptophan was labeled with a one letter code W, for UV detection and purification and a cysteine, marked with the one letter code C, bound to the N-terminal end of the peptide with two glycine. By applying the Michael-addition-chemistry, the cysteine was coupled to the maleimide-functionalized 10-kDa-starPEG. […] This is the largest library of peptide-polymer-conjugates, for which each of the oligosaccharide dependent hydrogel formation was analyzed. To analyze the formation of hydrogels, all peptide-starPEG-conjugates were each mixed with 14-kDa-heparin in 50 μI phosphate buffer (1×PBS) to a final concentration of 5 mM. […]

[5] = Rheological gelation measurement (MCR 302, cone-plate); settings: for Loss Factor at te / Storage modulus G′ at te: 1 mM KA7-RGDSP-starPEG + 1 mM 5DexS or 0.01 mM 500DexS; for Storage moduli G′: 2 mM KA7-RGDSP-starPEG + 2 mM oligosaccharide, after 110 min of gelation
Protocol: The oligosaccharides were purchased as given in Table 9 and weighed out as required prior each experiment. Oligosaccharides and peptide-starPEG conjugates were dissolved in PBS (oligosaccharides at five-fold and peptide-starPEG at 1.25-fold of the final concentration) and mixed thoroughly. The samples were applied directly onto the measuring system. First, 80% of the final sample volume was provided by the peptide-starPEG solution. Second, the oligosaccharide solution was added to complete to 100% of sample volume.
The Modular Compact Rheometer MCR 302 (Anton Paar) was used with temperature control unit (P-PTD200+H-PTD200, Anton Paar) and cone-plate measuring system (CP20-0.3 and INSET I-PP20/SS, Anton Paar) for assessment of the mechanical properties of the hydrogels of different composition. The gelation measurement was performed at 20° C. with 1% oscillatory shear strain and a frequency of 1 Hz every 5 min for 2 hours. The data was analyzed with Excel (Excel 2013, Microsoft).
The following experiments studied the mechanical properties of hydrogels formed of different components. FIG. 14 summarizes the chosen parameters and measurement values. The storage modulus G′ and loss modulus G″ are calculated from the complex modulus G, which is recorded by the oscillating rheometer. The loss factor tan δ is further calculated by G″ divided by G′.

[6] = 5 mM peptide-starPEG + 5 mM 14-kDa-heparin
[7] = supernatant 1xPBS, 5 mM conjugate + 5 mM heparin gel
[8] = supernatant Cell culture medium with 2% FBS
[9] = supernatant Saturated NaCl solution
[10] = Cell culture medium with 2% FBS
[11] = PBS, 50 μl, result after at least 3 days
[12] = 2.5 mM peptide-starPEG + 5 mM 14-kDa-heparin
[13] = te 120 min, sulfate sodium salt
[14] = 1 mM KA7-RGDSP-starPEG(40 kDa) + 1 mM oligosaccharide, te 120 min
[15] = 2 mM KA7-RGDSP-starPEG(10 kDa) + 2 mM oligosaccharide, te 110 min (5DexS), 120 min (Hep)
[16] = 2 mM KA7-starPEG + 2 mM 5DexS or 0.02 mM 500DexS, te 120 min, sulfate sodium salt
[17] = 2 mM KA7-starPEG(10 kDa) + 2 mM oligosaccharide, te 120 min
[18] = 1.5 mM KA7-starPEG(10 kD) + 3 mM cyclodextrin sulfate, te 120 min

## CWGGKAFAKLAARLYRKA (Human) [ATIII, reference compound]
[1]; [6]
  Deformation speed: gel shrank

## CWGGKAKAKAKAKAKAKA [KA7]
[2]; supernatant 1M HCl
  Stability of hydrogel against supernatant: Stable
[2]; supernatant 1M NaOH
  Stability of hydrogel against supernatant: Stable
[2]; [7]
  Stability of hydrogel against supernatant: Stable
[2]; [8]
  Stability of hydrogel against supernatant: Stable
[2]; supernatant DMSO
  Stability of hydrogel against supernatant: Stable
[2]; supernatant Ethanol
  Stability of hydrogel against supernatant: Stable
[2]; [9]
  Stability of hydrogel against supernatant: Stable
[2]; supernatant Water
  Stability of hydrogel against supernatant: Stable
[3]; [10]
  Hydrogel formation in solvent: formed
[3]; [11]
  Hydrogel formation in solvent: formed
[3]; water (Milli-Q)
  Hydrogel formation in solvent: formed
[1]; [12]
  Deformation speed: 43998 +/- 3139 m/s^2
  Penetration speed: 72780 +/- 6926 m/s^2
[1]; [6]
  Deformation speed: >148317 m/s^2
  Penetration speed: 138919 +/- 16275 m/s^2

## CWGGKAKAKAKaKAKAKA (CWGGKAKAKAK[dA]KAKAKA) [KA7-1a]
[4]
  Hydrogel formation with heparin: doesn't form a hydrogel with heparin

## CWGGKaKaKaKaKaKaKa (CWGGK[dA]K[dA]K[dA]K[dA]K[dA]K[dA]K[dA]) [KdA7]
[4]
  Hydrogel formation with heparin: neither formation of a hydrogel

## CWGGRARARARARA [RA5]
[1]; [6]
  Deformation speed: >687 m/s^2
  Penetration speed: >687 m/s^2

## CWGGRARARARARARARA [RA7]
[2]; supernatant 1M HCl
  Stability of hydrogel against supernatant: Stable; hydrogel was
[2]; supernatant 1M NaOH
  Stability of hydrogel against supernatant: Stable
[2]; [7]
  Stability of hydrogel against supernatant: Stable; the surface
[2]; [8]
  Stability of hydrogel against supernatant: Stable
[2]; supernatant DMSO
  Stability of hydrogel against supernatant: Stable
[2]; supernatant Ethanol
  Stability of hydrogel against supernatant: Stable
[2]; [9]
  Stability of hydrogel against supernatant: Not stable; hydrogel
[2]; supernatant Water
  Stability of hydrogel against supernatant: Stable
[3]; [10]
  Hydrogel formation in solvent: formed
[3]; [11]
  Hydrogel formation in solvent: formed
[3]; water (Milli-Q)
  Hydrogel formation in solvent: formed
[1]; [6]
  Deformation speed: 1069 +/- 579 m/s^2
  Penetration speed: 1952 +/- 491 m/s^2

## CWGGkAkAkAkAkAkAkA (CWGG[dK]A[dK]A[dK]A[dK]A[dK]A[dK]A[dK]A) [dKA7]
[4]
  Hydrogel formation with heparin: neither formation of a hydrogel

## Dextran sulfate sodium salt [Peptide 5DexS]
[5]; [13]
  Loss Factor at te: 0.00681
  Storage modulus G′ at te: 2,295 Pa
[5]; [14]
  Loss Factor at time point: 0.0105
[5]
  Storage moduli G′: 14.5 kPa
[5]; [15]
  Loss Factor at time point: 0.00611
  Storage modulus G′ at time point: 14,486 Pa
[5]; [16]
  Loss Factor at time point: 0.132
  Storage modulus G′ at time point: 76,977 Pa
[5]; [17]
  Loss Factor at time point: 0.132
  Storage modulus G′ at time point: 76,977 Pa

## Dextran sulfate sodium salt [Peptide 500DexS]
[5]; [13]
  Loss Factor at te: 0.0307
  Storage modulus G′ at te: 1,658 Pa
[5]; [16]
  Loss Factor at time point: 0.0887
  Storage modulus G′ at time point: 34,694 Pa

## Heparin [reference compound]
[5]; [14]
  Loss Factor at time point: 0.0486
  Storage modulus G′ at time point: 811 Pa
[5]
  Storage moduli G′: 12.1 kPa
[5]; [15]
  Loss Factor at time point: 0.0193
  Storage modulus G′ at time point: 12,104 Pa
[5]; [17]
  Loss Factor at time point: 0.0131
  Storage modulus G′ at time point: 1,849 Pa
[5]; 2 mM KA7-starPEG, after 120 min of gelation
  Factor by which storage modulus G′ is lower than for 5DexS gels: 40

## α-cyclodextrin sulfated sodium salt
[5]; [18]
  Loss Factor at time point: 0.0641
  Storage modulus G′ at time point: 30,561 Pa

## β-cyclodextrin sulfated sodium salt
[5]; [18]
  Loss Factor at time point: 0.062
  Storage modulus G′ at time point: 33,169 Pa

## γ-cyclodextrin sulfated sodium salt
[5]; [18]
  Loss Factor at time point: 0.0355
  Storage modulus G′ at time point: 30,749 Pa

Source: US11523990B2, “Non-covalent, self-organzing hydrogel matrix for biotechnological applications” (DENOVOMATRIX GMBH, priority 2012, dated 2022)
